Laboratory results reported in patent EP2265632B1 (Elevation Biotech (Pty) Ltd., dated 2009).

Molecular target: recombinant HIV-1BaL gp120 (HIV-1 BaL)
Experiment: SPR (Biacore 3000), gp120BaL immobilised on CM5 chip, peptide as analyte

B1: 12p1 (RINNIPWSEAMM), 12-mer peptide (peptide)
peptide: H-RINNIPWSEAMM-NH2
notes: Quality control peptide of the SPR assay
Kd: 1020 nM
